The target of the assay is T1, cyclo-CLLFCL (head-to-tail cyclic peptide).
T1 chain: CLLFCL
Nature of the assay: microscale thermophoresis. (In MST a laser heats a spot of the sample, and binding alters the fluorescence response.)

B1: HIF-1α PAS-B (protein)
chain: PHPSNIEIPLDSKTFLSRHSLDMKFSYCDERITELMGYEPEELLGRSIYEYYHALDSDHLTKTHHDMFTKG
On to B1, for which the equilibrium dissociation constant (Kd) was found to be 470 nM.

One may read the Kd as the free concentration of one partner at which half of the binding sites on the other are occupied at equilibrium, for simple one-to-one binding. A lower Kd goes with tighter binding.

The record behind these values is PMC11494503 (2024).
